# Test results published in patent US20230416330A1, “Optimized GIP Peptide Analogues” (Antag Therapeutics ApS, priority 2019, published 2023).
# Starred links: 1 amine or outer side, 2 acyl side, 3 side chain; linkers in the order of their positions; H or OH if unused. Non-standard residues stand in square brackets, D forms with d. Groups on a side chain read outwards from the residue. No end group written: not given here. *: point of attachment. C18 diacid = O=C(O)CCCCCCCCCCCCCCCCC(=O)*; C16 diacid = O=C(O)CCCCCCCCCCCCCCC(=O)*; γGlu = O=C(O)[C@H](CCC(=O)[*:2])N[*:1]; Glutaryl = O=C(CCCC(=O)[*:2])[*:1]; AEEA = NCCOCCOCC(=O)O; Aib = CC(C)(N)C(=O)O
# T1: human GIP receptor (human, UniProt P48546 22-466)
# T1 sequence (looked up): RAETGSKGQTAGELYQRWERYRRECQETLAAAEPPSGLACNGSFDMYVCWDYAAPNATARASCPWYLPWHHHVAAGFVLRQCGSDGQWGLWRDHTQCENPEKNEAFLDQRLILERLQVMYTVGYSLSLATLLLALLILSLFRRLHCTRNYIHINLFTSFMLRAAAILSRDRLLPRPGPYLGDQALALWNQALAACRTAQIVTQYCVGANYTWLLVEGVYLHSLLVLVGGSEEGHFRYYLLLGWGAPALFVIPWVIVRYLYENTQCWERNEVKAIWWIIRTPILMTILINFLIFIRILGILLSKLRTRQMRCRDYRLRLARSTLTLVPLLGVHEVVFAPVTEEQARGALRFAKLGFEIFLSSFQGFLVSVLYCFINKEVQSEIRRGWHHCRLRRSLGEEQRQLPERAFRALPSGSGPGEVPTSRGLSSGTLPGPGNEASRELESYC
# B1: AT364 (peptide)
# peptide: EGTFISDYSIAMDKIK(C16 diacid)QQDFVNWLLAQKPSSGAPPPS-OH
# modifications: N-terminus assumed
# SMILES: CC[C@H](C)[C@H](NC(=O)[C@H](CO)NC(=O)[C@H](Cc1ccc(O)cc1)NC(=O)[C@H](CC(=O)O)NC(=O)[C@H](CO)NC(=O)[C@@H](NC(=O)[C@H](Cc1ccccc1)NC(=O)[C@@H](NC(=O)CNC(=O)[C@@H](N)CCC(=O)O)[C@@H](C)O)[C@@H](C)CC)C(=O)N[C@@H](C)C(=O)N[C@@H](CCSC)C(=O)N[C@@H](CC(=O)O)C(=O)N[C@@H](CCCCN)C(=O)N[C@H](C(=O)N[C@@H](CCCCNC(=O)CCCCCCCCCCCCCCC(=O)O)C(=O)N[C@@H](CCC(N)=O)C(=O)N[C@@H](CCC(N)=O)C(=O)N[C@@H](CC(=O)O)C(=O)N[C@@H](Cc1ccccc1)C(=O)N[C@H](C(=O)N[C@@H](CC(N)=O)C(=O)N[C@@H](Cc1c[nH]c2ccccc12)C(=O)N[C@@H](CC(C)C)C(=O)N[C@@H](CC(C)C)C(=O)N[C@@H](C)C(=O)N[C@@H](CCC(N)=O)C(=O)N[C@@H](CCCCN)C(=O)N1CCC[C@H]1C(=O)N[C@@H](CO)C(=O)N[C@@H](CO)C(=O)NCC(=O)N[C@@H](C)C(=O)N1CCC[C@H]1C(=O)N1CCC[C@H]1C(=O)N1CCC[C@H]1C(=O)N[C@@H](CO)C(=O)O)C(C)C)[C@@H](C)CC
# B2: AT762 (peptide)
# peptide: Glutaryl-GTFISDYSIAMDKIK(C16 diacid)QQDFVEWLLAQKPSSGAPPPS-OH
# SMILES: CC[C@H](C)[C@H](NC(=O)[C@H](CO)NC(=O)[C@H](Cc1ccc(O)cc1)NC(=O)[C@H](CC(=O)O)NC(=O)[C@H](CO)NC(=O)[C@@H](NC(=O)[C@H](Cc1ccccc1)NC(=O)[C@@H](NC(=O)CNC(=O)CCCC(=O)O)[C@@H](C)O)[C@@H](C)CC)C(=O)N[C@@H](C)C(=O)N[C@@H](CCSC)C(=O)N[C@@H](CC(=O)O)C(=O)N[C@@H](CCCCN)C(=O)N[C@H](C(=O)N[C@@H](CCCCNC(=O)CCCCCCCCCCCCCCC(=O)O)C(=O)N[C@@H](CCC(N)=O)C(=O)N[C@@H](CCC(N)=O)C(=O)N[C@@H](CC(=O)O)C(=O)N[C@@H](Cc1ccccc1)C(=O)N[C@H](C(=O)N[C@@H](CCC(=O)O)C(=O)N[C@@H](Cc1c[nH]c2ccccc12)C(=O)N[C@@H](CC(C)C)C(=O)N[C@@H](CC(C)C)C(=O)N[C@@H](C)C(=O)N[C@@H](CCC(N)=O)C(=O)N[C@@H](CCCCN)C(=O)N1CCC[C@H]1C(=O)N[C@@H](CO)C(=O)N[C@@H](CO)C(=O)NCC(=O)N[C@@H](C)C(=O)N1CCC[C@H]1C(=O)N1CCC[C@H]1C(=O)N1CCC[C@H]1C(=O)N[C@@H](CO)C(=O)O)C(C)C)[C@@H](C)CC
# B3: AT158 (peptide)
# peptide: EGTFISDYSIAMDKIK(C16 diacid)QQDFVNWLLAQK-NH2
# modifications: N-terminus assumed
# SMILES: CC[C@H](C)[C@H](NC(=O)[C@H](CO)NC(=O)[C@H](Cc1ccc(O)cc1)NC(=O)[C@H](CC(=O)O)NC(=O)[C@H](CO)NC(=O)[C@@H](NC(=O)[C@H](Cc1ccccc1)NC(=O)[C@@H](NC(=O)CNC(=O)[C@@H](N)CCC(=O)O)[C@@H](C)O)[C@@H](C)CC)C(=O)N[C@@H](C)C(=O)N[C@@H](CCSC)C(=O)N[C@@H](CC(=O)O)C(=O)N[C@@H](CCCCN)C(=O)N[C@H](C(=O)N[C@@H](CCCCNC(=O)CCCCCCCCCCCCCCC(=O)O)C(=O)N[C@@H](CCC(N)=O)C(=O)N[C@@H](CCC(N)=O)C(=O)N[C@@H](CC(=O)O)C(=O)N[C@@H](Cc1ccccc1)C(=O)N[C@H](C(=O)N[C@@H](CC(N)=O)C(=O)N[C@@H](Cc1c[nH]c2ccccc12)C(=O)N[C@@H](CC(C)C)C(=O)N[C@@H](CC(C)C)C(=O)N[C@@H](C)C(=O)N[C@@H](CCC(N)=O)C(=O)N[C@@H](CCCCN)C(N)=O)C(C)C)[C@@H](C)CC
# B4: AT437 (peptide)
# peptide: SGTFISDYSIAMDKIK([AEEA-AEEA-γGlu-C18 diacid])QQDFVNWLLAQKPSSGAPPPS-OH
# modifications: N-terminus assumed
# SMILES: CC[C@H](C)[C@H](NC(=O)[C@H](CO)NC(=O)[C@H](Cc1ccc(O)cc1)NC(=O)[C@H](CC(=O)O)NC(=O)[C@H](CO)NC(=O)[C@@H](NC(=O)[C@H](Cc1ccccc1)NC(=O)[C@@H](NC(=O)CNC(=O)[C@@H](N)CO)[C@@H](C)O)[C@@H](C)CC)C(=O)N[C@@H](C)C(=O)N[C@@H](CCSC)C(=O)N[C@@H](CC(=O)O)C(=O)N[C@@H](CCCCN)C(=O)N[C@H](C(=O)N[C@@H](CCCCNC(=O)COCCOCCNC(=O)COCCOCCNC(=O)CC[C@H](NC(=O)CCCCCCCCCCCCCCCCC(=O)O)C(=O)O)C(=O)N[C@@H](CCC(N)=O)C(=O)N[C@@H](CCC(N)=O)C(=O)N[C@@H](CC(=O)O)C(=O)N[C@@H](Cc1ccccc1)C(=O)N[C@H](C(=O)N[C@@H](CC(N)=O)C(=O)N[C@@H](Cc1c[nH]c2ccccc12)C(=O)N[C@@H](CC(C)C)C(=O)N[C@@H](CC(C)C)C(=O)N[C@@H](C)C(=O)N[C@@H](CCC(N)=O)C(=O)N[C@@H](CCCCN)C(=O)N1CCC[C@H]1C(=O)N[C@@H](CO)C(=O)N[C@@H](CO)C(=O)NCC(=O)N[C@@H](C)C(=O)N1CCC[C@H]1C(=O)N1CCC[C@H]1C(=O)N1CCC[C@H]1C(=O)N[C@@H](CO)C(=O)O)C(C)C)[C@@H](C)CC
# B5: AT482 (peptide)
# peptide: EGTFISEYSIAMEKIK(C16 diacid)QQEFVQWLLAQK-NH2
# modifications: N-terminus assumed
# SMILES: CC[C@H](C)[C@H](NC(=O)[C@H](CO)NC(=O)[C@H](Cc1ccc(O)cc1)NC(=O)[C@H](CCC(=O)O)NC(=O)[C@H](CO)NC(=O)[C@@H](NC(=O)[C@H](Cc1ccccc1)NC(=O)[C@@H](NC(=O)CNC(=O)[C@@H](N)CCC(=O)O)[C@@H](C)O)[C@@H](C)CC)C(=O)N[C@@H](C)C(=O)N[C@@H](CCSC)C(=O)N[C@@H](CCC(=O)O)C(=O)N[C@@H](CCCCN)C(=O)N[C@H](C(=O)N[C@@H](CCCCNC(=O)CCCCCCCCCCCCCCC(=O)O)C(=O)N[C@@H](CCC(N)=O)C(=O)N[C@@H](CCC(N)=O)C(=O)N[C@@H](CCC(=O)O)C(=O)N[C@@H](Cc1ccccc1)C(=O)N[C@H](C(=O)N[C@@H](CCC(N)=O)C(=O)N[C@@H](Cc1c[nH]c2ccccc12)C(=O)N[C@@H](CC(C)C)C(=O)N[C@@H](CC(C)C)C(=O)N[C@@H](C)C(=O)N[C@@H](CCC(N)=O)C(=O)N[C@@H](CCCCN)C(N)=O)C(C)C)[C@@H](C)CC
# Assays:
# human GIP receptor [1] = biological target: T1, human GIP receptor; experiment: cell-based or functional assay
# human GIP receptor [2] = biological target: T1, human GIP receptor; experiment: cell-based or functional assay; remark: listed apart in the source
Binder,"nM (Kb, Schild analysis, cAMP) (human GIP receptor [1]) [nM]","pKb (Schild analysis, cAMP) (human GIP receptor [1])","cAMP antagonism nM (IC50, CisBio assay) (human GIP receptor [2]) [nM]",cAMP antagonism pIC50 (CisBio assay) (human GIP receptor [2])
Glutaryl-GTFISDYSI[Aib]MDKIK(C16 diacid)QQDFVNWLLAQKPSSGAPPPS-OH [AT763],0.14,9.9,,
EGTFISDYSIAMDKIHQQDFVNWLLAQK [GIP(3-30)],3.5,8.5,33.8,7.5
B1,0.77,9.1,1.12,9
B2,0.15,9.8,,
B3,3.7,8.4,14.3,7.8
B4,,,35.5,7.5
B5,,,14.1,7.9
